Reference: patent US20110059077A1 (JURIDICAL FDN THE CHEMO SERO THERAPEUTIC RES INST, published 2011)
Changes are numbered by the printed parent chain. Numbers in names are those of the source.

B1: mouse anti-human α9 integrin antibody Y9A2 (antibody, V domains shown)
VH: QVQLQQSGAELANPGASVKMSCKASGYTLTTYWMHWVKQRPGQGLEWIGYINPSSGYTEYNQKFKDKATLTADKSSSTAYMQLTSLTSEDSAVYYCAIYGDYGDFYFDYWGQGTTLTVSS
VL: SIVMTQTPKFLLVSAGDRVTMTCKASQSVNTDVAWFQQKPGQSPKLLIYFASNHYTGVPDRFTGSGYGTDFTFTISTVQAEDLAIYFCRQDYSSPFTFGGGTKLEIKR
B2: RY9A2v11(M34L)012 antibody (antibody, human IgG1, kappa, V domains shown)
VH: QVQLVQSGAEVKKPGSSVKMSCKASGYTLTTYWLHWVKQRPGQGLEWIGYINPSSGYTEYNQKFQGRVTITADKSTSTAYMELSSLRSEDTAVYYCAIYGDYGDFYFDYWGQGTTVTVSS
VL: DIQMTQSPSSLSASVGDRVTITCRASQSVNTDVAWYQQKPGKAPKLLIYFASNHYTGVPSRFSGSGSGTDFTFTISSLQPEDIATYYCRQDYSSPFTFGGGTKVEIKR
B3: RY9A2v12(M34L)012 antibody (antibody, human IgG1, kappa, V domains shown)
VH: B2 VH with M20V, K38R, R40A, I48M
VL: B2 VL
B4: RY9A2v5(IAW)01 antibody (antibody, human IgG1, kappa, V domains shown)
VH: B2 VH with L34I, Q65K, G66D, D104A, F105W
VL: B2 VL with R24K
B5: RY9A2v501 antibody (antibody, V domains shown)
VH: B2 VH with L34M, Q65K, G66D
VL: B2 VL with R24K
B6: RY9A2v801 antibody (antibody, V domains shown)
VH: B2 VH with M20V, L34M, K38R, R40A, I48M, Q65K, G66D
VL: B2 VL with R24K

What follows are binders tested against T1, human α9 integrin molecule expressed on SW480 cells (human, UniProt Q13797 30-1035; P05556 21-798) (assay: cell-based or functional assay).
T1 sequence (Q13797 30-1035, form in doubt, chain 1 of 2): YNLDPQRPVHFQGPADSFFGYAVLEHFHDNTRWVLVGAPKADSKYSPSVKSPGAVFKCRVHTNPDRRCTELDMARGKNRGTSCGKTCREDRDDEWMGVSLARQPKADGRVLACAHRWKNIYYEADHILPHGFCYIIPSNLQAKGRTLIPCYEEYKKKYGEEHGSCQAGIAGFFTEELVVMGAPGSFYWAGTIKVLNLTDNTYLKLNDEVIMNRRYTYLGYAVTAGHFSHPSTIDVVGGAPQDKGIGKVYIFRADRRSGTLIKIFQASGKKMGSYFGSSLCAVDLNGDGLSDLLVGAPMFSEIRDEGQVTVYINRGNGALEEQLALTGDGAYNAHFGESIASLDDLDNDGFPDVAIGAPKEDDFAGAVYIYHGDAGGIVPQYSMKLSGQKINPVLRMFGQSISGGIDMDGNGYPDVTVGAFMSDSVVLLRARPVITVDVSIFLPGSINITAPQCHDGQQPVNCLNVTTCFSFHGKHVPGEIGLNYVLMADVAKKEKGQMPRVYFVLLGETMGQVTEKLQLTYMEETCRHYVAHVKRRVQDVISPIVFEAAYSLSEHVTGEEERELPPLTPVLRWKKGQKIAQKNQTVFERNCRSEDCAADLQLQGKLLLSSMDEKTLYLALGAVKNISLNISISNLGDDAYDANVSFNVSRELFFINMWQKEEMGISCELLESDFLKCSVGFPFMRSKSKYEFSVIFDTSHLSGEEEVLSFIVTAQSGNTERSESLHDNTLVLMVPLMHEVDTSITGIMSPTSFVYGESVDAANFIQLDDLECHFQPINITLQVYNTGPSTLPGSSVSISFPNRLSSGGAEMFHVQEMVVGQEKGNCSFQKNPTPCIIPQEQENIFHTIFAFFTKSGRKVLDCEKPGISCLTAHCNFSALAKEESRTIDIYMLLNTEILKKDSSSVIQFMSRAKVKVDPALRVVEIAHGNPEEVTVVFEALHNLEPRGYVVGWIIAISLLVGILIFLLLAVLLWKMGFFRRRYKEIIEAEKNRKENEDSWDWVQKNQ
T1 sequence (P05556 21-798, form in doubt, chain 2 of 2): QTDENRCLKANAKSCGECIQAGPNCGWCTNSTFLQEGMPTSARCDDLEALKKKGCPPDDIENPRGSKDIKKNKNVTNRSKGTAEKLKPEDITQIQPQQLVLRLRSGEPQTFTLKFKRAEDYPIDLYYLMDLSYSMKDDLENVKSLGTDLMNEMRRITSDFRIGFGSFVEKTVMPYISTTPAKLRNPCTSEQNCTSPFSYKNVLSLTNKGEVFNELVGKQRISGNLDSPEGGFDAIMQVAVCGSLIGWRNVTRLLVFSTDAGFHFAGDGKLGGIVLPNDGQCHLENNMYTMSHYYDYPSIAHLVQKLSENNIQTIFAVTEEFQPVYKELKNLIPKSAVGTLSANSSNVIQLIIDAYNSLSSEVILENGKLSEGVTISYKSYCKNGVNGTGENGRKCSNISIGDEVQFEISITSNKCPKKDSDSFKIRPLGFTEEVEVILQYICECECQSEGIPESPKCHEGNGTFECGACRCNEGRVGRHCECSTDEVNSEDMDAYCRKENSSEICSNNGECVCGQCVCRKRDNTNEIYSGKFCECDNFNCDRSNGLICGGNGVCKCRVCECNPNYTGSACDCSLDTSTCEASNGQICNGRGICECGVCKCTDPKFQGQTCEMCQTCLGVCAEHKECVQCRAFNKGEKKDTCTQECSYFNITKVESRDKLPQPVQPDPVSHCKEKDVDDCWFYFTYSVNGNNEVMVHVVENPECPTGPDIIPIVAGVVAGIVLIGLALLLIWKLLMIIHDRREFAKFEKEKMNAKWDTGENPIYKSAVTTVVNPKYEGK
B1 was tested, and the “specific activity (IC50 relative to mouse Y9A2 = 1), cell adhesion inhibition, SW480/hα9 cells to nOPN-RAA” value was 1 ratio to IC50 of mouse Y9A2. In the case of B2, the “specific activity (IC50 relative to mouse Y9A2 = 1), cell adhesion inhibition, SW480/hα9 cells to nOPN-RAA” value is reported as 0.23 ratio to IC50 of mouse Y9A2. For B3, the “specific activity (IC50 relative to mouse Y9A2 = 1), cell adhesion inhibition, SW480/hα9 cells to nOPN-RAA” value was 0.23 ratio to IC50 of mouse Y9A2. B4 was tested, and the “specific activity (IC50 relative to mouse Y9A2 = 1), cell adhesion inhibition, SW480/hα9 cells to nOPN-RAA” value was 0.29 ratio to IC50 of mouse Y9A2.

Molecular target: T1, human α9 integrin molecule expressed on …
Experiment: cell-based or functional assay
Remark: another data set of the same source
With B1 the “specific activity (IC50 relative to mouse Y9A2 = 1), cell adhesion inhibition, SW480/hα9 cells to nOPN-RAA” value was 1 ratio to IC50 of mouse Y9A2. In the case of B5, the “specific activity (IC50 relative to mouse Y9A2 = 1), cell adhesion inhibition, SW480/hα9 cells to nOPN-RAA” value is reported as 0.77 ratio to IC50 of mouse Y9A2. With B6 the “specific activity (IC50 relative to mouse Y9A2 = 1), cell adhesion inhibition, SW480/hα9 cells to nOPN-RAA” value was 0.82 ratio to IC50 of mouse Y9A2.

Molecular target: T1, human α9 integrin molecule expressed on …
Experiment: cell-based or functional assay
Remark: another data set of the same source
In the case of B1, the “specific activity (IC50 relative to mouse Y9A2 = 1), cell adhesion inhibition to human Tenascin C-RAA” value is reported as 1 ratio to IC50 of mouse Y9A2 and the “specific activity (IC50 relative to mouse Y9A2 = 1), cell adhesion inhibition to human VCAM-1” value is reported as 1 ratio to IC50 of mouse Y9A2. With B2 the “specific activity (IC50 relative to mouse Y9A2 = 1), cell adhesion inhibition to human Tenascin C-RAA” value was 0.35 ratio to IC50 of mouse Y9A2 and the “specific activity (IC50 relative to mouse Y9A2 = 1), cell adhesion inhibition to human VCAM-1” value was 0.44 ratio to IC50 of mouse Y9A2. In the case of B3, the “specific activity (IC50 relative to mouse Y9A2 = 1), cell adhesion inhibition to human Tenascin C-RAA” value is reported as 0.26 ratio to IC50 of mouse Y9A2 and the “specific activity (IC50 relative to mouse Y9A2 = 1), cell adhesion inhibition to human VCAM-1” value is reported as 0.95 ratio to IC50 of mouse Y9A2. For B4, the “specific activity (IC50 relative to mouse Y9A2 = 1), cell adhesion inhibition to human Tenascin C-RAA” value was 0.44 ratio to IC50 of mouse Y9A2 and the “specific activity (IC50 relative to mouse Y9A2 = 1), cell adhesion inhibition to human VCAM-1” value was 1 ratio to IC50 of mouse Y9A2.
